According to IntAct's records for PubMed 19363481:

B1: DNA repair protein rad60 (Schizosaccharomyces pombe (strain ATCC 38366 / 972)), Q9USX3 (parent)
chain: MDNLDEDDLAFFSKPIKKPPLNYAKQLIASSSDSEEESELDTNKQALEHINAQKNITHNENKSAEPLSRQSTILDADEGNQDVSDTTPNACLNEGRHSPKSAISCVTQPVSPVYNTRAAANLRNNSINSEAALSTTSSLLDDDFARRLEEIDRQVQEFEKSSSDMDVQIHTHKREIEEDDDNTSADVPLLKHSKSDHSTLYHSKSEFSTNEPVISVVLQLAVIGQRIPNSNISLPRDWEAPLFFKVKSNQQFRRVRIAYSERKKVDNVVLVFQNQRLWDYGTPKGAGMLKVDTRLVVHAYCHSDFISLKRIKELEVEKLSSVTEDSTAQTCKLITLLLRSSKSEDLRLSIPVDFTVKDLIKRYCTEVKISFHERIRLEFEGEWLDPNDQVQSTELEDEDQVSVVLD
partner: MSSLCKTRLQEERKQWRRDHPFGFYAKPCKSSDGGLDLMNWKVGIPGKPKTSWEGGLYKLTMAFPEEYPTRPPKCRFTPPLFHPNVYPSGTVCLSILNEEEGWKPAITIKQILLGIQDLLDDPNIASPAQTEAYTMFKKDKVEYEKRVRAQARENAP

Variants of: B1
Conditions: with ubc9_schpo hus5, P40984

How did the “effect of a mutation on the interaction” value turn out when MDNLDEDDLAFFSKPIKKPPLNYAKQLIASSSDSEEESELDTNKQALEHINAQKNITHNENKSAEPLSRQSTILDADEGNQDVSDTTPNACLNEGRHSPKSAISCVTQPVSPVYNTRAAANLRNNSINSEAALSTTSSLLDDDFARRLEEIDRQVQEFEKSSSDMDVQIHTHKREIEEDDDNTSADVPLLKHSKSDHSTLYHSKSEFSTNEPVISVVLQLAVIGQRIPNSNISLPRDWEAPLFFKVKSNQQFRRVRIAYSERKKVDNVVLVFQNQRLWDYGTPKGAGMLKVDTRLVVHAYCHSDFISLKRIKELEVEKLSSVTEDSTAQTCKLITLLLRSSKSEDLRLSIPVDFTVKDLIKRYCTEVKISFHERIRLEFRGEWLDPNDQVQSTELEDEDQVSVVLD [E380R] was run?
The value was “disrupting interaction”.
